The term Kd denotes the concentration at which binding is half-saturated. High values mean weaker binding, low ones tighter binding.

B1: target 1 MT 5'PFS UCG 3'PFS AUU (mixed)
RNA 1: CACCCGUGCAAAAAUGCAGGGGUCUAAAACUGAGCGGAUAACCUCUCUAUGG
RNA 2: GGGAAUGGAUCCACAUCUACGAAUUCUCGCCAUAGAGAGGUUAUCCGCUCAAUUAGAUCGGAAGAGCACACGU
B2: target 1 MT 5'PFS CCA 3'PFS CGG (mixed)
RNA 1: B1 RNA 1
RNA 2: B1 RNA 2 with U27C, G29A, A52C, U53G, U54G
B3: target 1 del4,del8 (mixed)
RNA 1: B1 RNA 1
RNA 2: GGGAAUGGAUCCACAUCUACGAAUUCGUACCAUAGAGAGGUUACCGUCACCGAGAUCGGAAGAGCACACGU
B4: target 1 insG 3' of 20,insA 3' of 10 (mixed)
RNA 1: B1 RNA 1
RNA 2: GGGAAUGGAUCCACAUCUACGAAUUCGUACCAGUAGAGAGGUUAAUCCGCUCACCGAGAUCGGAAGAGCACACGU
B5: target 1 MT 5'PFS UUG 3'PFS CUU (mixed)
RNA 1: B1 RNA 1
RNA 2: B1 RNA 2 with C28U, A52C
B6: target 1 MT 5'PFS UUA 3'PFS CUG (mixed)
RNA 1: B1 RNA 1
RNA 2: B1 RNA 2 with C28U, G29A, A52C, U54G
B7: target 1 MT 5'PFS UUA 3'PFS UAA (mixed)
RNA 1: B1 RNA 1
RNA 2: B1 RNA 2 with C28U, G29A, A52U, U53A, U54A
B8: target 1 MT 5'PFS UUG 3'PFS CUG (mixed)
RNA 1: B1 RNA 1
RNA 2: B1 RNA 2 with C28U, A52C, U54G
B9: target 1 MT 5'PFS GGC 3'PFS CCA (mixed)
RNA 1: B1 RNA 1
RNA 2: B1 RNA 2 with U27G, C28G, G29C, A52C, U53C, U54A
B10: target 1 G5U,G13C (mixed)
RNA 1: B1 RNA 1
RNA 2: B1 RNA 2 with U27G, C28U, G29A, G39C, G47U, A52C, U53C, U54G
B11: target 1 MT 5'PFS UUA 3'PFS UAC (mixed)
RNA 1: B1 RNA 1
RNA 2: B1 RNA 2 with C28U, G29A, A52U, U53A, U54C
B12: target 1 MT 5'PFS GAC 3'PFS UAG (mixed)
RNA 1: B1 RNA 1
RNA 2: B1 RNA 2 with U27G, C28A, G29C, A52U, U53A, U54G
B13: target 1 MT 5'PFS AAC 3'PFS AAG (mixed)
RNA 1: B1 RNA 1
RNA 2: B1 RNA 2 with U27A, C28A, G29C, U53A, U54G
B14: target 1 MT 5'PFS ACC 3'PFS UAG (mixed)
RNA 1: B1 RNA 1
RNA 2: B1 RNA 2 with U27A, G29C, A52U, U53A, U54G
B15: target 1 MT 5'PFS AAA 3'PFS CAC (mixed)
RNA 1: B1 RNA 1
RNA 2: B1 RNA 2 with U27A, C28A, G29A, A52C, U53A, U54C
B16: target 1 MT 5'PFS CAU 3'PFS CUC (mixed)
RNA 1: B1 RNA 1
RNA 2: B1 RNA 2 with U27C, C28A, G29U, A52C, U54C
B17: target 1 MT 5'PFS GAC 3'PFS UAA (mixed)
RNA 1: B1 RNA 1
RNA 2: B1 RNA 2 with U27G, C28A, G29C, A52U, U53A, U54A
B18: target 1 MT 5'PFS GCA 3'PFS AGC (mixed)
RNA 1: B1 RNA 1
RNA 2: B1 RNA 2 with U27G, G29A, U53G, U54C
B19: target 1 MT 5'PFS AAC 3'PFS AAC (mixed)
RNA 1: B1 RNA 1
RNA 2: B1 RNA 2 with U27A, C28A, G29C, U53A, U54C
B20: target 1 MT 5'PFS UUG 3'PFS CUA (mixed)
RNA 1: B1 RNA 1
RNA 2: B1 RNA 2 with C28U, A52C, U54A
B21: target 1 C6U,U19C (mixed)
RNA 1: B1 RNA 1
RNA 2: B1 RNA 2 with U27G, C28U, G29A, U33C, C46U, A52C, U53C, U54G
B22: target 1 MT 5'PFS UAG 3'PFS GAG (mixed)
RNA 1: B1 RNA 1
RNA 2: B1 RNA 2 with C28A, A52G, U53A, U54G
B23: target 1 MT 5'PFS UUA 3'PFS UAG (mixed)
RNA 1: B1 RNA 1
RNA 2: B1 RNA 2 with C28U, G29A, A52U, U53A, U54G
B24: target 1 MT 5'PFS GAC 3'PFS UAC (mixed)
RNA 1: B1 RNA 1
RNA 2: B1 RNA 2 with U27G, C28A, G29C, A52U, U53A, U54C
B25: target 1 MT 5'PFS GAC 3'PFS UAU (mixed)
RNA 1: B1 RNA 1
RNA 2: B1 RNA 2 with U27G, C28A, G29C, A52U, U53A
B26: target 1 MT 5'PFS GUU 3'PFS CGA (mixed)
RNA 1: B1 RNA 1
RNA 2: B1 RNA 2 with U27G, C28U, G29U, A52C, U53G, U54A
B27: target 1 MT 5'PFS CAU 3'PFS CUA (mixed)
RNA 1: B1 RNA 1
RNA 2: B1 RNA 2 with U27C, C28A, G29U, A52C, U54A
B28: target 1 MT 5'PFS GUU 3'PFS CGG (mixed)
RNA 1: B1 RNA 1
RNA 2: B1 RNA 2 with U27G, C28U, G29U, A52C, U53G, U54G
B29: target 1 MT 5'PFS UUA 3'PFS CUC (mixed)
RNA 1: B1 RNA 1
RNA 2: B1 RNA 2 with C28U, G29A, A52C, U54C
B30: target 1 MT 5'PFS GUU 3'PFS CGC (mixed)
RNA 1: B1 RNA 1
RNA 2: B1 RNA 2 with U27G, C28U, G29U, A52C, U53G, U54C
B31: target 1 MT 5'PFS GUU 3'PFS CGU (mixed)
RNA 1: B1 RNA 1
RNA 2: B1 RNA 2 with U27G, C28U, G29U, A52C, U53G
B32: target 1 MT 5'PFS GGC 3'PFS CCG (mixed)
RNA 1: B1 RNA 1
RNA 2: B1 RNA 2 with U27G, C28G, G29C, A52C, U53C, U54G

Substitutions are numbered along the chain they refer to. Names and notes keep the numbering of the source.

The data set has as its target T1, EsCas13d, nuclease-dead (Eubacterium siraeum, UniProt B0MS50, R295A;H300A;R849A;H854A).
T1 sequence: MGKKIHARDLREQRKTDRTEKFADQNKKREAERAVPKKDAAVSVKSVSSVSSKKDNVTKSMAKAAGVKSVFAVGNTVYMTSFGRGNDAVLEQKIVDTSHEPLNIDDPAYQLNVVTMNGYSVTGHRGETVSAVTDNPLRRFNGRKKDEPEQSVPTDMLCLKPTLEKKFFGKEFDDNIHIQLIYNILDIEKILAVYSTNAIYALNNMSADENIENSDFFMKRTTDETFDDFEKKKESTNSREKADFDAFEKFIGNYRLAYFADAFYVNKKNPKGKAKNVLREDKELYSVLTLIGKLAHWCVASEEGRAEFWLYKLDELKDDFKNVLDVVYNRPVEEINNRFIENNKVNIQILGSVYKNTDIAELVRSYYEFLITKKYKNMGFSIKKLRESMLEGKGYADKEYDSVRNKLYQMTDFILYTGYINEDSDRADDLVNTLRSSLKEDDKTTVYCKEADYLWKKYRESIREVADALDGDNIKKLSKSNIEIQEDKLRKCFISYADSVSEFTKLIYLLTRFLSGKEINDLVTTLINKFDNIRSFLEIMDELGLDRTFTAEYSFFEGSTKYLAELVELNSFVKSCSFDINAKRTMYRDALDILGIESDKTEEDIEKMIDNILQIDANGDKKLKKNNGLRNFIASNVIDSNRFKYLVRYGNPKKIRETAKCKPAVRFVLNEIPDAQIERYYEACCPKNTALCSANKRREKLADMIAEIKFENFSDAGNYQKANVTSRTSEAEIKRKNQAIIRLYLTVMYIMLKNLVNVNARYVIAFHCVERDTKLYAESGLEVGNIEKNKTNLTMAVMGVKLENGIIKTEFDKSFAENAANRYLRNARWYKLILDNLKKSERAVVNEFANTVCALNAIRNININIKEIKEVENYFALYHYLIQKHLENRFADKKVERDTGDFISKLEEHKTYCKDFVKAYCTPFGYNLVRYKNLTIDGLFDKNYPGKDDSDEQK
The experiment in a line: crRNA (strand 1, pre-loaded); Mg2+; 40 mM Tris-HCl pH 7.5, 150 mM NaCl, 6 mM MgCl2, 1 mM DTT, 0.1% Tween-20, 0.2 mg/ml BSA; 25 C; 10 min per concentration, then washed. The following applies: tags: His6-TwinStrep-SUMO cleaved; N-terminal SNAP kept (SNAP-Surface 488); label: 3' end held by stalled T7 RNA polymerase.
In turn, B1 returned a Kd of 32.5 ± 10.5 nM.

Consider B2, for which binding was put at a Kd of 5.05 ± 1.35 nM.

For B3, binding was characterised by a dissociation constant (Kd) of 12.1 ± 1 nM.

B4: binding was put at a Kd of 42 ± 8 nM.

As for B5, the Kd amounted to 14.4 ± 3.55 nM.

In turn, B6 gave a dissociation constant (Kd) of 14.9 ± 2.6 nM.

With B7, the affinity, expressed as Kd, was 21.5 ± 7 nM.

The molecule B8 gave a Kd of 23.5 ± 5.75 nM.

Molecule B9 returned a Kd of 31.5 ± 10.5 nM.

For B10, the Kd stood at 39 ± 6 nM.

B11 gave a dissociation constant (Kd) of 35 ± 7 nM.

Regarding B12, the Kd worked out at 27.5 ± 11 nM.

In the case of B13, binding was put at a Kd of 34.5 ± 15 nM.

In the case of B14, the dissociation constant Kd is approximately 14.5 nM.

B15 yielded a Kd of 29.5 ± 11.5 nM.

In turn, B16 registered a dissociation constant (Kd) of approximately 90 nM.

Turning to B17, the Kd was 17.5 ± 4.5 nM.

Turning to B18, the dissociation constant Kd worked out at 28.5 ± 14 nM.

For the molecule B19, the Kd was found to be 84.5 ± 41.5 nM. Compared with the last molecule, the Kd is about 3-fold higher.

Turning to B20, binding was characterised by a dissociation constant (Kd) of 45.5 ± 18 nM.

B21 came in with a dissociation constant (Kd) of 29.7 ± 2 nM.

In the case of B22, binding was characterised by a dissociation constant (Kd) of 91 ± 37 nM.

Turning to B23, the affinity, expressed as Kd, was 27.5 ± 6 nM.

The molecule B24 yielded a Kd of 19 ± 8 nM.

Consider B25, for which the Kd turned out to be 19 ± 6 nM.

As to B26, the Kd is 19.7 ± 4.2 nM.

Molecule B27 came in with a dissociation constant Kd of approximately 110 nM.

Molecule B28 registered a dissociation constant (Kd) of 67 ± 9 nM.

With B29, binding was characterised by a dissociation constant (Kd) of 16 ± 4 nM. Compared with the last molecule, the Kd is about 4.2-fold lower.

B30 registered a Kd of 19.8 ± 4.5 nM.

The molecule B31 came in with a Kd of 12.3 ± 1.8 nM.

Molecule B32 registered a dissociation constant (Kd) of 8.35 ± 1.4 nM.

The record behind these values is PMC10786891, “Massively parallel profiling of RNA-targeting CRISPR-Cas13d”.
